Data as given in patent publication US20120316071A1 (published 2012).
Values belong to the binder of their own block, whether it stands above or below them.

Assays:
[1] = target: T1, Recombinant Human DLL4 (R&D Systems Cat#1506-D4/CF) (human, UniProt Q9NR61 27-524); experiment: Multispot ECL (MSD), antigen spotted on plate, Fab 15.6 nM; blank spot 294
T1 construct: Bought recombinant protein; also called rHuman DLL4; delta-like protein 4

[2] = target: T2, rHuman IGF-1 sR, CF (R&D Systems Cat#391-GR) (human, UniProt P08069 31-932); experiment: as above
T2 construct: Bought recombinant soluble receptor; also called insulin-like growth factor-1 soluble receptor

[3] = target: T3, rHuman Notch-1/Fc Chimera, CF (R&D Systems Cat#3647-TK) (human, UniProt P46531 19-526); experiment: Multispot ECL (MSD), antigen spotted on plate, Fab 125 nM; blank spot 403
T3 construct: Bought recombinant protein; Fc part of the bought chimera not given

[4] = target: T1, Recombinant Human DLL4 (R&D Systems …); experiment: as above
[5] = target: T2, rHuman IGF-1 sR, CF (R&D Systems …); experiment: as above
[6] = target: T4, rHuman Erythropoietin R/Fc Chimera, CF (R&D Systems Cat#963-ER) (human, UniProt P19235 25-250); experiment: as above
T4 construct: Bought recombinant protein; also called EPO R/Fc; Epo R; Fc part of the bought chimera not given
T4 sequence (looked up): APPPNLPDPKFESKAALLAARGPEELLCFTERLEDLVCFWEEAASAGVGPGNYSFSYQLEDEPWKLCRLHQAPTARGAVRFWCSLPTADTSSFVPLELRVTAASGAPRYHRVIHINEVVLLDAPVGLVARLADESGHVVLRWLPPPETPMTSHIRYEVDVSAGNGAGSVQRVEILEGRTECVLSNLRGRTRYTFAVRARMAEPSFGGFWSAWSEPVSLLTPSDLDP

[7] = target: T5, Recombinant Human DLL4 (R&D Systems Cat#1506-D4/CF) (human, UniProt Q9NR61 27-524); experiment: Multispot ECL (MSD) titration; antigen spotted on plate; Fab 14.5 nM; blank spot 117
T5 construct: Bought recombinant protein; also called delta-like protein 4; rHuman DLL4

[8] = target: T6, rHuman Notch-1/Fc Chimera, CF (R&D Systems Cat#3647-TK) (human, UniProt P46531 19-526); experiment: as above
T6 construct: Bought Fc chimera; Fc part of the bought chimera not given

[9] = target: T7, rHuman Erythropoietin R/Fc Chimera, CF (R&D Systems Cat#963-ER) (human, UniProt P19235 25-250); experiment: as above
T7 construct: Bought Fc chimera; also called EPO R/Fc; EPO R; Fc part of the bought chimera not given
T7 sequence (looked up): T4 sequence (looked up)

[10] = target: T8, rHuman ErbB2/Fc Chimera, CF (R&D Systems Cat#1129-ER) (human, UniProt P04626 23-652); experiment: as above
T8 construct: Bought Fc chimera; also called human epidermal growth factor 2 receptor; Fc part of the bought chimera not given

[11] = target: T9, rHuman P-Cadherin/Fc Chimera, CF (R&D Systems Cat#861-PC) (human, UniProt P22223 108-654); experiment: as above
T9 construct: Bought Fc chimera; Fc part of the bought chimera not given

[12] = target: T10, rHuman IGF-1 sR (IGF-1 sR), CF (R&D Systems Cat#391-GR) (human, UniProt P08069 31-932); experiment: as above
T10 construct: Bought soluble receptor; also called insulin-like growth factor-1 soluble receptor

[13] = target: T11, rHuman CD44/Fc Chimera, CF (R&D Systems Cat#3660-CD) (human, UniProt P16070 21-220); experiment: as above
T11 construct: Bought Fc chimera; Fc part of the bought chimera not given

[14] = target: T12, rHuman IGF-1 sR, (IGF-1 sR), CF (R&D Systems Cat#391-GR) (human, UniProt P08069 31-932); experiment: MSD multispot ECL, antigen spotted on plate, Fab 88.1 nM; blank spot 301
T12 construct: Bought from R&D Systems and called a soluble receptor; also called insulin-like growth factor-1 soluble receptor

[15] = target: T13, rHuman CD44/Fc Chimera, CF (R&D Systems Cat#3660-CD) (human, UniProt P16070 21-220); experiment: as above
T13 construct: Bought from R&D Systems; not shown: Fc of the bought chimera

[16] = target: T14, Recombinant Human DLL4 (R&D Systems Cat#1506-D4/CF) (human, UniProt Q9NR61 27-524); experiment: as above
T14 construct: Bought from R&D Systems; also called rHuman DLL4; delta-like protein 4

[17] = target: T15, rHuman ErbB2/Fc Chimera, CF (R&D Systems Cat#1129-ER) (human, UniProt P04626 23-652); experiment: as above
T15 construct: Bought from R&D Systems; also called human epidermal growth factor 2 receptor (ErbB2); not shown: Fc of the bought chimera

[18] = target: T16, rHuman Erythropoietin R/Fc Chimera, CF (R&D Systems Cat#963-ER) (human, UniProt P19235 25-250); experiment: as above
T16 construct: Bought from R&D Systems; also called EPO R/Fc; Epo R/Fc chimera; not shown: Fc of the bought chimera
T16 sequence (looked up): T4 sequence (looked up)

ECL signal [1]: 525 | ECL signal [2]: 349 | ECL signal [3]: 802 | ECL signal [4]: 912 | ECL signal [5]: 654 | ECL signal [6]: 9240
B1: Fab VH1-46_IGHD6-13*01_IGHJ4*01 & B3_IGKJ1*01 (Fab, V domains shown)
VH: QVQLVQSGAEVKKPGASVKVSCKASGYTFTSYYMHWVRQAPGQGLEWMGIINPSGGSTSYAQKFQGRVTMTRDTSTSTVYMELSSLRSEDTAVYYCAREGYSSSWYDYFDYWGQGTLVTVSS
VL: not shown
notes: Germline Fab made in E. coli; VH was cloned into Plasmid A (CH1, His6 and Flag tags) and the kappa VL into Plasmid C (kappa CL)

ECL signal [7]: 1150 | ECL signal [8]: 317 | ECL signal [9]: 660 | ECL signal [10]: 274 | ECL signal [11]: 277 | ECL signal [12]: 234 | ECL signal [13]: 212
B2: Fab VH1-46_IGHD6-13*01_IGHJ4*01 & O1_IGKJ1*01 (Fab, V domains shown)
VH: B1 VH
VL: DIVMTQTPLSLPVTPGEPASISCRSSQSLLDSDDGNTYLDWYLQKPGQSPQLLIYTLSYRASGVPDRFSGSGSGTDFTLKISRVEAEDVGVYYCMQRIEFPSWTFGQGTKVEIKR
notes: Germline library Fab expressed in E. coli; VH was cloned into Plasmid A (CH1 constant region, His6 and Flag tags); The kappa VL was cloned into Plasmid C (kappa CL)

ECL signal [14]: 273 | ECL signal [15]: 340 | ECL signal [16]: 434 | ECL signal [17]: 200 | ECL signal [18]: 3370
B3: Fab VH1-46_IGHD3-10*01_IGHJ4*01 & B3_IGKJ1*01 (Fab, V domains shown)
VH: QVQLVQSGAEVKKPGASVKVSCKASGYTFTSYYMHWVRQAPGQGLEWMGIINPSGGSTSYAQKFQGRVTMTRDTSTSTVYMELSSLRSEDTAVYYCAREYYYGSGSYYNDYFDYWGQGTLVTVSS
VL: not shown
notes: Tested as a Fab made in E. coli; VH was cloned into Plasmid A (CH1 constant region, His6 and Flag tags); The kappa VL was cloned into Plasmid C (kappa CL)
